Measurements reported in patent US20050244864A1, “Development and use of fluorescent probes of unbound analytes” (priority 2004, published 2005).
Positions count from the first letter of the chain named. Names may count otherwise.

B1: L2P4C5: acrylodan-labeled rI-FABP-L72A mutein: M18 I, G31 Y, F55 WT, A73 WT (protein, UniProt P02693 2-132, looked up, variant M18I G31Y L72A)
Fatty acid-binding protein, …: AFDGTWKVDRNENYEKFIEKMGINVVKRKLYAHDNLKLTITQEGNKFTVKESSNFRNIDVVFELGVDFAYSAADGTELTGTWTMEGNKLVGKFKRVDNGKELIAVREISGNELIQTYTYEGVEAKRIFKKE
modifications: acrylodan label
B2: L2P22 B1: UCB-responsive probe from rI-FABP-L72A; mutations 18Y 31V 55V 72A (protein, UniProt P02693 2-132, looked up, variant M18Y G31V F55V L72A)
Fatty acid-binding protein, …: B1 Fatty acid-binding protein, … with I18Y, Y31V, F55V
B3: L5P16 H4: UCB-responsive probe from rI-FABP-L72A; mutations 126K 73F 72A (protein, UniProt P02693 2-132, looked up, variant L72A A73F R126K)
Fatty acid-binding protein, …: B1 Fatty acid-binding protein, … with I18M, Y31G, A73F, R126K
modifications: acrylodan label
notes: UCB-responsive probe from rI-FABP-L72A; mutations 126K 73F 72A

Tests used:
[1] = Probe fluorescence ratio response to palmitoleate:BSA complex, relative to ADIFAB2 (ΔR/ΔRAD2); format: binding; conditions: fluorescence response (R-Ro) relative to ADIFAB2
[2] = Probe fluorescence ratio response to oleate:BSA complex, relative to ADIFAB2 (ΔR/ΔRAD2); format: binding; conditions: fluorescence response (R-Ro) relative to ADIFAB2; oleate
Outline: (§1)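 Probe ratio shift relative to ADIFAB2, using FFA:BSA complexes that buffer unbound fatty acid at 100–1000 nM. Readings at 6 μM BSA in HEPES, background-corrected.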

[3] = Probe fluorescence ratio response to linoleate:BSA complex, relative to ADIFAB2 (ΔR/ΔRAD2); format: binding; conditions: fluorescence response (R-Ro) relative to ADIFAB2; linoleate
Outline: as §1

[4] = Probe fluorescence ratio response to arachidonate:BSA complex, relative to ADIFAB2 (ΔR/ΔRAD2); format: binding; conditions: fluorescence response (R-Ro) relative to ADIFAB2; arachidonate
Outline: as §1

[5] = Probe fluorescence ratio response to stearate:BSA complex, relative to ADIFAB2 (ΔR/ΔRAD2); format: binding; conditions: fluorescence response (R-Ro) relative to ADIFAB2
[6] = Probe fluorescence ratio response to palmitate:BSA complex, relative to ADIFAB2 (ΔR/ΔRAD2); format: binding; conditions: fluorescence response (R-Ro) relative to ADIFAB2; palmitate
Outline: as §1

[7] = Probe fluorescence ratio response to linolenate:BSA complex, relative to ADIFAB2 (ΔR/ΔRAD2); format: binding; conditions: fluorescence response (R-Ro) relative to ADIFAB2; linolenate
Outline: as §1

[8] = Binding isotherm: probe titrated with UCB, Kd; conditions: UCB; at 22° C.; read-out: Kd (nM) at 22° C.
Experimental: Larger preparations of select probes were prepared for quantitative determination of binding affinities. Binding isothermns were performed by measuring the fluorescence intensity for 1 μM of a given probe as the probe was titrated with known quantities of UCB. […] Table 3 lists the Kd values and mutations for some example probes. […] This property was confirmed by titration of a mixture of 0.5 μM UCB and 1 μM L2P14F7 with sodium oleate. […] Oleic acid is the most abundant FFA in serum, and measurements of normal serum samples indicate that typical unbound concentrations of oleic acid are less than 1 nM. By using non-responsive probes from FFA screening to conduct a secondary screening with other unbound analytes, a UCB-sensitive probe that has a negligible response to the major FFA in blood has been generated from a rI-FABP-L72A mutant.

[9] = Screening of FFA-insensitive probes for response to UCB:BSA complexes (ΔI/Io); format: binding; conditions: fractional change in fluorescence intensity; for ΔI/Io 1:1 UCB:BSA 440 nm / ΔI/Io 1:1 UCB:BSA 500 nm: UCB:BSA 1:1; for ΔI/Io 1:1 UCB:BSA 440 nm / ΔI/Io 1:2 UCB:BSA 440 nm: emission 440 nm; for ΔI/Io 1:1 UCB:BSA 500 nm / ΔI/Io 1:2 UCB:BSA 500 nm: emission 500 nm; for ΔI/Io 1:2 UCB:BSA 440 nm / ΔI/Io 1:2 UCB:BSA 500 nm: UCB:BSA 1:2
Experimental: A probe for unbound unconjugated bilirubin (UCBu) was developed and used to measure concentrations of UCBu in plasma spiked with a defined quantity of unconjugated bilirubin (UCB). Using 384-well plates, 335 mutant probes that were insensitive to FFA were screened for their response to UCB:BSA complexes at UCB:BSA ratios of 1:1 and 1:2 in aqueous buffer. All probes were prepared from rI-FABP-L72A with 1 to 5 mutations. Screening was conducted by comparing the fractional change in fluorescence intensity (ΔI/Io, where ΔI is the difference in probe intensity in the presence and absence of UCB and Io is the intensity in the absence of UCB) for the probes with that for ADIFAB2. This value was calculated for two emission wavelengths: 440 and 500 nm. […] The emitted fluorescence of these probes is quenched by binding of UCB.

| Molecule | ΔR/ΔRAD2 POA [1] | ΔR/ΔRAD2 OA [2] | ΔR/ΔRAD2 LA [3] | ΔR/ΔRAD2 AA [4] | ΔR/ΔRAD2 SA [5] | ΔR/ΔRAD2 PA [6] | ΔR/ΔRAD2 LNA [7] | Kd [8] [nM] | ΔI/Io 1:1 UCB:BSA 440 nm [9] | ΔI/Io 1:1 UCB:BSA 500 nm [9] | ΔI/Io 1:2 UCB:BSA 440 nm [9] | ΔI/Io 1:2 UCB:BSA 500 nm [9] |
| --- | --- | --- | --- | --- | --- | --- | --- | --- | --- | --- | --- | --- |
| B1 | 2.6 | 2.1 | 2.8 | 2.2 | 1.0 | 1.8 | 2.8 |  |  |  |  |  |
| B2 |  |  |  |  |  |  |  | 550 | −0.70 | −0.68 | −0.36 | −0.35 |
| B3 |  |  |  |  |  |  |  | 390 | −0.69 | −0.64 | −0.37 | −0.31 |
